Experiments:
[1] = target: Human 5T4 full length (human) (UniProt Q13641); experiment: flow cytometry on PA1 cells, 5 µg/ml probe, anti-Fc FITC
[2] = target: Human 5T4 full length (human) (UniProt Q13641); experiment: flow cytometry on PC3 cells, 5 µg/ml probe, anti-Fc FITC
[3] = target: Human 5T4 full length (human) (UniProt Q13641); experiment: flow cytometry on A431 cells, 5 µg/ml probe, anti-Fc FITC
[4] = target: Human 5T4 full length (human) (UniProt Q13641); experiment: flow cytometry on DLD1 cells, 5 µg/ml probe, anti-Fc FITC
[5] = target: Human 5T4 full length (human) (UniProt Q13641); experiment: flow cytometry on HT29 cells, 5 µg/ml probe, anti-Fc FITC
[6] = target: Human 5T4 full length (human) (UniProt Q13641); experiment: flow cytometry on BxPC3 cells, 5 µg/ml probe, anti-Fc FITC
[7] = target: Human 5T4 full length (human) (UniProt Q13641); experiment: flow cytometry on LNCaP cells, 5 µg/ml probe, anti-Fc FITC
[8] = target: Human 5T4 full length (human) (UniProt Q13641); experiment: flow cytometry on SKOV3 cells, 5 µg/ml probe, anti-Fc FITC
[9] = target: Human 5T4 full length (human) (UniProt Q13641); experiment: flow cytometry on MDAMB361 cells, 5 µg/ml probe, anti-Fc FITC
[10] = target: Human 5T4 full length (human) (UniProt Q13641); experiment: flow cytometry on recombinant MDA-MB-231-5T4 FL cells at 5 µg/ml
[11] = target: Human 5T4 full length (human) (UniProt Q13641); experiment: flow cytometry on MBA-MB-231 cells (as the row is labelled), 5 µg/ml probe, anti-Fc FITC
[12] = target: Human 5T4 full length (human) (UniProt Q13641); experiment: flow cytometry on Rec-MDA-MB-231-5T4 cells (as the row is labelled), 5 µg/ml probe, anti-Fc FITC

Sequence of UniProt Q13641 (Q13641 32-420): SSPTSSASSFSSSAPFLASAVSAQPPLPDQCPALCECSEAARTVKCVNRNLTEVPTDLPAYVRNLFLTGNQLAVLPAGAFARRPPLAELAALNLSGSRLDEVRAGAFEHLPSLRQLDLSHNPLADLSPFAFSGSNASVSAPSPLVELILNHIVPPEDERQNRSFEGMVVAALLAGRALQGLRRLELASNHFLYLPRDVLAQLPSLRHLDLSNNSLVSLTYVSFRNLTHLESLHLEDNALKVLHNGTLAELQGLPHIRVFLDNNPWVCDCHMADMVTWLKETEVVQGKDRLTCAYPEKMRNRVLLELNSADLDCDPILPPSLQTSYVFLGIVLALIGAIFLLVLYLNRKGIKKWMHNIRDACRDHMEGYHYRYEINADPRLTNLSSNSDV

Median fluorescence intensity (MFI) [1]: 6 MFI | Median fluorescence intensity (MFI) [2]: 3 MFI | Median fluorescence intensity (MFI) [3]: 13 MFI | Median fluorescence intensity (MFI) [4]: 14 MFI | Median fluorescence intensity (MFI) [5]: 12 MFI | Median fluorescence intensity (MFI) [6]: 14 MFI | Median fluorescence intensity (MFI) [7]: 23 MFI | Median fluorescence intensity (MFI) [8]: 6 MFI | Median fluorescence intensity (MFI) [9]: 5 MFI | fold less binding (against the anti-5T4 proteins) [10]: 200 fold | Median fluorescence intensity (MFI) [11]: 4 MFI | Median fluorescence intensity (MFI) [12]: 8 MFI
Substance: unrelated (control) Fc fusion protein

Source: patent US20160304617A1
